± gives the standard deviation of the averaged measurements.
Columns and labels:
[1] = PET hydrolysis, aromatic products released after 48 h (umol product/mg enzyme); higher = more PET depolymerization activity
Outline: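 Amorphous PET film or crystalline PET powder (3.5 mg) in 450 μL of 50 mM NaCitrate (pH 4.5, 5.5), 50 mM NaPhosphate (pH 6.5, 7.5) or glycine (pH 8.5) received 5 μg (50 μL) of candidate enzyme. That enzyme was purified on nickel beads and freed of its tag by SUMO cleavage. After 48 h at 40 or 60 °C in sealed plates without shaking, absorbance of the supernatant at 260 and 280 nm was read against buffer blanks. PET hydrolysis activity is this aromatic product expressed per mg enzyme.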

[2] = purified protein yield per well (BCA); higher = higher soluble expression
Outline: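 On an OT-2 robot, lysed cells were processed by binding protein to Ni-charged magnetic beads and releasing it with SUMO protease. Expression took place in E. coli C41(DE3), in 2 mL autoinduction cultures with 100 µg/mL kanamycin, for 2 h at 37 °C followed by 40 h at 18 °C. The Pierce Rapid Gold BCA kit was used to quantify purified protein yield in each well, with values under 25 ug (0.1 mg/mL) below the detection threshold.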

[3] = melting temperature (DSF); higher = more thermostable
Outline: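 Enzymes made in E. coli C41(DE3) were nickel-bead purified and cut free with SUMO protease before testing. Differential scanning fluorimetry gave each melting temperature. For this, 5 μL 5X Sypro Orange was added to 45 μL enzyme (0 to 0.3 mg/mL) in sealed PCR plates, and a Bio-Rad CFX96 read fluorescence from 25 °C over 250 cycles of 0.3 °C each, ramping at 0.3 °C/s.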

[4] = substrate: aFilm, 40 °C, pH 5.5
[5] = substrate: aFilm, 40 °C, pH 6.5
[6] = substrate: aFilm, 40 °C, pH 7.5
[7] = substrate: aFilm, 40 °C, pH 8.5
[8] = substrate: aFilm, 60 °C, pH 5.5
[9] = substrate: aFilm, 60 °C, pH 6.5
[10] = substrate: aFilm, 60 °C, pH 7.5
[11] = substrate: aFilm, 60 °C, pH 8.5
[12] = substrate: cryPow, 40 °C, pH 5.5
[13] = substrate: cryPow, 40 °C, pH 6.5
[14] = substrate: cryPow, 40 °C, pH 7.5
[15] = substrate: cryPow, 40 °C, pH 8.5
[16] = substrate: cryPow, 60 °C, pH 5.5
[17] = substrate: cryPow, 60 °C, pH 6.5
[18] = substrate: cryPow, 60 °C, pH 7.5
[19] = substrate: cryPow, 60 °C, pH 8.5
[20] = substrate: cryPow, 40 °C, pH 4.5
[21] = substrate: cryPow, 60 °C, pH 4.5

Row | Sequence | PET hydrolysis [1, 4] | PET hydrolysis [1, 5] | PET hydrolysis [1, 6] | PET hydrolysis [1, 7] | PET hydrolysis [1, 8] | PET hydrolysis [1, 9] | PET hydrolysis [1, 10] | PET hydrolysis [1, 11] | PET hydrolysis [1, 12] | PET hydrolysis [1, 13] | PET hydrolysis [1, 14] | PET hydrolysis [1, 15] | PET hydrolysis [1, 16] | PET hydrolysis [1, 17] | PET hydrolysis [1, 18] | PET hydrolysis [1, 19] | purified protein yield per well [2] | melting temperature [3] | PET hydrolysis ([1]; substrate: aFilm, 40 °C, pH 4.5) | PET hydrolysis ([1]; substrate: aFilm, 60 °C, pH 4.5) | PET hydrolysis [1, 20] | PET hydrolysis [1, 21]
1 | AGFEKGPDPTTASVTADRGSYDIAQVDVPKGSGTGFADGTIYYPKSTADGTFGAVAVIPGFLEPKSAIDWYGPRLASQGFVVMTLDTTSVFDTPDSRGGQLLAALDYLTSKSTVKDRIDPNRLAVVGHSMGGGGTLSAAANRPNLKAAVALAPWHVSAPLTSVKTPTMIFGSDNDFIAPDGTFAKPFYDGISNAPEKAYVRLKNAGHMAYVFPDKRIAEYTLSWLKRYVDDDTRYTQFLCPGPTNESTIAAYKSTCPM [DP093] | < 3 | < 3 | < 3 | < 3 | < 3 | < 3 | < 3 | < 3 | 4 | 1.5 ± 2.1 | < 3 | < 3 | < 3 | < 3 | < 3 | < 3 | 225 µg | 46.6 C |  |  |  | 
2 | AGFERGPDPSTSTLDAARGPFAVAEERVYSWRASGFGGGDIYYPTTTSEGTFGVVAVAPGYTAGRSSMAWLASRIASHGFVVINIDTLTRSDQPASRGRQLLAALDHVTSSSGVRDRVDASRQAVVGHSMGGGGALEAASSRPALQAAVPLTPWNLTKRWSSLQVPTFIVGAENDSVASVRTHAEPFYESLPAALPKAYLELNNASHFAPNTTNSTIGRYTVAWLKRYVDDDLRYSQFLCPPPPPSSAIEEFRATC [DP087] | < 3 | < 3 | < 3 | < 3 | < 3 | < 3 | < 3 | < 3 | < 3 | < 3 | < 3 | < 3 | < 3 | < 3 | < 3 | < 3 | 208 µg | 44.2 C |  |  |  | 
3 | AGNPYERGPSPTAASIAADRGPFATAQVTVPRGNGFGGGVIYYPTDTSQGTFGAIAIAPGFNTAWSYYAWQGPRLASFGFVVIGIETNTLNDYADARATQLLAALDYLVNSSPVRDRVDRDRLAVGGHSMGGGGALLAATQRPSLLTAVGQAPYVPNGNLSGIKSPTIIFAGQADGTVTPQYAQNAYNTIPADVERAYVEIANEGHGFPAGGGGGNSGAFARTMMVWLKLFIDKDTRYAPFLCPTLSNANGISKYMASCPLDPPGGGPTASPTASPTATPSSTPTGPPPATSALKGVASGRCLDVNGASQANGAQAQIWDCNGQNNQQWTTTSAGELRVYGNKCLDVNGGSTADGTSVIIWDCNGQNNQKWRLNSDGTITAVGANKCLDVSGAGTANGTKTQIWTCHGGTNQKWTRV [DP092] | < 3 | < 3 | < 3 | < 3 | < 3 | < 3 | < 3 | < 3 | 7 ± 1.4 | 13.5 ± 3.5 | 15 | 18.5 ± 2.1 | < 3 | < 3 | < 3 | < 3 | 197 µg | 68.5 C |  |  |  | 
4 | AGNPYQRGPDPTLASVAASRGTFATAQVSVPAGNGFNGGTIYYPTDSSQGTWGAVAIVPGYTALFANEEAWMGPWLASFGFVVIGIETNSRTDFDTARGTQLLAALDYLTQKSPVRDRVDSARLGVIGHSMGGGGVVYATEHRPSLKAAVALAPFSPSQDMSTDHVPTMVMGGQNDTVVTPSYLDGLYATMPASTQSDFVQLAGADHVAYTHPNTTEMRLLIPWLKIFLDDDTRYTQFLCPLMDSTGVSAYHSKCPYVPPGGSTSTPTPTPTITPTPPPSGACSATYRTVNSWSGGYQGEVTVTAGDAAINGWTVRWNLGGGQTVTQVWNGTLSTSGSTATVTNASYNGSLQASASTTFGFLANGTPSTPAITCTSP [TEP114] | < 3 | < 3 | < 3 |  | < 3 | < 3 | < 3 |  | 12.5 ± 0.71 | 24.5 ± 3.5 | < 3 |  | 9 ± 1.4 | 1.5 ± 2.1 | < 3 |  | 407 µg | 41.8 C | < 3 | < 3 | 7 | 6 ± 1.4
5 | AGNPYQRGPDPTLASVAASRGTFATAQVSVPPGNGFNGGTIYYPTDTTQGTWGAVAIVPGYTALFANEEAWMGPWLASFGFVVIGIETNSRNDFDTARGTQLLAALDYLTQKSPVRDRVDSARLGVIGHSMGGGGVVYATEHRPSLKAAVALAPFSPSQDMSTDHVPTMVMAGQNDTVVTPSYLDGLYATMPASAQSDFVQLAGADHVAYTHPNTTEMRLLIPWLKIFLDDDTRYTQFLCPLKDSTGVSMYRAKCPYVPPGGPTTSPTPTTTPTPPDGGACSATYRTVNSWSGGYQGEITVTAGGAAIDGWTVRWSLGGGQTVTQVWNGTLSTSGSTASVANASYNGSLQASASTTFGFLANGTPSTPALTCSSP [ESM084] |  |  |  |  |  |  |  |  | 5 | < 3 | < 3 |  | < 3 | < 3 | < 3 |  | 119 µg | 43.9 C |  |  | < 3 | < 3

— the supplement of paper PMC12455559
